Key:
[1] = biological target: T1, recombinant human OX40L-flag polypeptide (human OX40 ligand extracellular domain fused to the flag peptide) (human, UniProt P23510 51-183); experiment: SPR (BIAcore 3000), OX40L-Flag captured by immobilised anti-Flag, IgG as analyte
T1 construct: extracellular domain; Expressed from CHO cells (Genentech); also called human OX40L ECD-Flag polypeptide; human OX40L in solution; not shown: flag peptide
T1 sequence (looked up): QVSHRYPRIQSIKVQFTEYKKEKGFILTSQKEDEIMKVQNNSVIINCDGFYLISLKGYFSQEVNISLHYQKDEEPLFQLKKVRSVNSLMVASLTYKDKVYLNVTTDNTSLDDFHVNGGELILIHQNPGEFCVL
Description: Binding kinetics of mouse anti-OX40L antibodies to human OX40L were measured by surface plasmon resonance using Pharmacia BIAcore® 3000 (BIAcore AB, Uppsala, Sweden) at room temperature (Karlsson et al., 1994; Morton & Myszka, 1998). Anti-Flag antibody (anti-FlagM2, Sigma, St. Louis, Mo.) was immobilized to the sensor chip (CM5) through primary amine groups. A high flow rate was used in order to minimize mass transport effects. The carboxymethylated sensor chip surface matrix was activated by injecting 20 ul of a mixture of 0.025 M N-hydroxysuccinimide and 0.1 M N-ethyl-N′(dimethylaminopropyl) carbodiimide at 5 ul/min. 7 ul of 50 ug/ml anti-Flag in 10 mM sodium acetate, pH 4.5, were injected at 5 ul/min twice. After coupling, unoccupied sites on the chip were blocked by injecting 20 ul of 1M ethanolamine, pH 8.5. The running buffer was PBS containing 0.05% polysorbate 20. 5 ul of 4 ug/ml OX40L-Flag were injected at 30 ul/min to bind […] to the anti-Flag on the chip. For kinetic measurements, two-fold serial dilutions (6.2-50 nM) of mouse […] 8E12 (PUR 9333) and 13G5 (PUR 9306) in running buffer were injected over flow cell for 2 minutes at a flow rate of 30 ul/min and the bound anti-OX40L antibody was allow to dissociate for 20 minutes. […] Data were analyzed using a 1:1 binding model using global fitting. […]

[2] = biological target: T2, full-length human OX40L expressed on CHO cells (human, UniProt P23510 1-183); experiment: cell-based competition ELISA on CHO cells expressing full-length human OX40L; competitor human OX40-IgG, anti-Fc-HRP
T2 construct: whole, on cells; also called CHO-OX40L cells; OX40L-expressing CHO cells
T2 sequence (looked up): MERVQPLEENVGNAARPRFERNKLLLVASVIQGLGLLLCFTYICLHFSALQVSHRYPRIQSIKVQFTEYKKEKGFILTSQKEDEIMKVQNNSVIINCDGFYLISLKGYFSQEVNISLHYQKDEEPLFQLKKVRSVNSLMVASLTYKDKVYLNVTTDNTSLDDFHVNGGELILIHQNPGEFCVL
Description: (§1) In other experiments, CHO cells expressing full-length human OX40L were grown in 50:50 F12/DMEM medium supplemented with 2 mM L-glutamine, 100 units/ml penicillin, 100 ug/ml streptomycin (supplemented medium), and 5% FBS (Gibco BRL Life Technologies, Gaithersburg, Md.) (growth medium) in a humidified 5% CO₂ incubator at 37° C. Cells were detached from culture plates using Accutase (ICN) and added to 96 well microwell plates at 300,000 cells/well. A mixture of human OX40-IgG and serial dilutions of antibodies in growth medium was added to the plates. After a one-hour incubation on ice, cells were washed by centrifuging the plates and removing the supernatant. Bound human OX40-IgG was detected using anti-Fc-HRP. […] In some experiments, human OX40-IgG-bio was used instead of human OX40-IgG. Bound human OX40-IgG-bio was detected using streptavidin-HRP. Plates were developed and read as described above.

[3] = biological target: T3, mouse OX40L-Flag (mouse, UniProt P43488 51-198, limits assumed); experiment: ELISA, plates coated with antibody, serial dilutions of mouse OX40L-Flag, biotinylated anti-Flag and streptavidin-HRP detection
T3 construct: not shown: Flag tag
T3 sequence (looked up): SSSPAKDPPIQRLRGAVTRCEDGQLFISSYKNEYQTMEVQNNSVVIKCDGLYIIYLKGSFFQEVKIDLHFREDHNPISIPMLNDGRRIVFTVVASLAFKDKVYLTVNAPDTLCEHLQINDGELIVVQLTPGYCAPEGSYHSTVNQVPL
Description: (§2) To determine whether Mabs 8E12 and 13G5 bound mouse OX40L, ELISA plates were coated with mouse OX40L. Serial dilutions of 8E12 or 13G5 (0.004-4 ug/ml) were added. Goat anti-mouse Fc-HRP was used for detection. No binding was observed. In a different format, ELISA plates were coated with 8E12 or 13G5. Serial dilutions of mouse OX40L-Flag were added. Biotinylated anti-Flag followed by streptavidin-HRP was used for detection. No binding was observed.

[4] = biological target: T2, full-length human OX40L expressed on …; experiment: competitive radioligand binding on OX40L-expressing CHO cells; antibody titrated against iodinated OX40-Fc (0.25 nM final), overnight at 4 C, gamma counting, 4-parameter fit
Description: Competitive binding experiments were performed to determine if anti-OX40L mAbs 8E12 and 13G5 competed with iodinated OX40-Fc (extracellular domain of OX40 receptor fused to Fc domain) for binding to OX40L expressed on CHO cells. 50 ug of […] was iodinated using a standard lactoperoxidase method. Antibodies 8E12 and 13G5 were serially diluted 1:4 in media buffer (Dubeccos F12:DMEM, 1% bovine serum albumin, 0.05% sodium azide and 25 mM Hepes buffer pH 7.2) starting at an initial concentration of 200 nM. Dilutions (50 uL) were performed in duplicate in a 96 microwell plate. Each well received 50 uL of iodinated […] (0.25 nM final concentration), was mixed and then the entire mixture was transferred to a 96 well tissue culture plate containing 30,000 OX40L-expressing CHO cells per well, which had been plated out the previous day. The plates were covered and incubated overnight at 4° C. The next day the wells (containing cells) were aspirated and washed twice with media buffer. 200 uL of 1N NaOH was added to each well to lyse the cells, shaken for 10 minute, and then transferred to a 96 well microtube. Each tube was counted in a Wallac gamma scintillation counter. The data was collected and plotted using Kaleidagraph. Curves were drawn using a 4-parameter fit.

[5] = biological target: T4, mouse OX40L (mouse, UniProt P43488 51-198, limits assumed); experiment: ELISA, plates coated with mouse OX40L, goat anti-mouse Fc-HRP detection
T4 construct: Construct coated on the plate is not described
T4 sequence (looked up): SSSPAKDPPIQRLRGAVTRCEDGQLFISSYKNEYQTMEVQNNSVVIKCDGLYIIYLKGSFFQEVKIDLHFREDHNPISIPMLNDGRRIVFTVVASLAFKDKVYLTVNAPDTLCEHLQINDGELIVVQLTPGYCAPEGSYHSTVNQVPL
Description: as §2

[6] = biological target: T1, recombinant human OX40L-flag …; experiment: competition ELISA, OX40L ECD-Flag captured by anti-Flag; competitor human OX40-IgG-bio; OX40L ECD-Flag captured on anti-Flag plate; OX40-IgG-bio as competitor
Description: Competition ELISA analysis was conducted as follows to examine binding of anti-OX40L Mabs 8E12 and 13G5 to OX40L in solution, and to examine binding to cell-surface expressed OX40L. In some experiments, maxiSorp 96-well microwell plates (Nunc, Roskilde, Denmark) were coated overnight at 4° C. with 2 ug/ml anti-FlagM2 antibody (Sigma) in 50 mM carbonate buffer, pH 9.6. Plates were washed with PBS containing 0.05% polysorbate 20 and blocked with 0.5% bovine serum albumin, 10 ppm Proclin 300 (Supelco, Bellefonte, Pa.) in PBS at room temperature for 1 h. Plates were washed and 0.5 ug/ml of human OX40L ECD-Flag polypeptide was added. After a one-hour incubation, plates were washed. A mixture of human OX40-IgG-bio and serial dilutions of antibodies in PBS containing 0.5% bovine serum albumin, 0.05% polysorbate 20, 10 ppm Proclin 300 was added. The plates were incubated for 2 h at room temperature and washed. Bound human OX40-IgG-bio was detected by adding streptavidin-HRP (Amdex, Copenhagen, Denmark) followed by 3,3′,5,5′-tetramethyl benzidine (Kirkegaard & Perry Laboratories, Gaithersburg, Md.) as the substrate. […] Absorbance was read at 450 nm on a Titertek stacker reader (ICN, Costa Mesa, Calif.). The titration curves were fit using a four parameter regression curve fitting program (KaleidaGraph, Synergy software, Reading, Pa.). […]

[7] = biological target: T2, full-length human OX40L expressed on …; experiment: Scatchard analysis, iodinated antibody on OX40L-expressing CHO cells
Description: Scatchard binding experiments were performed to determine if anti-OX40L mAbs 8E12 and 13G5 compete with each other for binding similar or overlapping epitopes on CHO cells expressing human OX40L, and to determine the binding affinity of the antibodies. 50 ug of anti-OX40L murine monoclonal antibodies 8E12 and 13G5 were iodinated using a standard lactoperoxidase method. Antibodies 8E12 and 13G5 were serially diluted 1:4 in media buffer (Dubeccos F12:DMEM, 1% bovine serum albumin, 0.05% sodium azide and 25 mM Hepes buffer pH 7.2) starting at an initial concentration of 200 nM. Two sets of dilution series (50 uL) were performed in duplicate in a 96 microwell plate. Wells from each set of dilutions received 50 uL of either iodinated 8E12 or 13G5 (0.25 nM final concentration). The plate was mixed and then the entire mixture was transferred to a 96 well tissue culture plate containing 30,000 OX40L-expressing CHO cells per well which had been plated out the previous day. The plates were covered and incubated overnight at 4° C. The next day the wells (containing cells) were aspirated and washed twice with media buffer. 200 uL of 1N NaOH was added to each well to lyse the cells, shaken for 10 minute, and then transferred to a 96 well microtube. Each tube was counted in a Wallac gamma scintillation counter. […]

[8] = biological target: T2, full-length human OX40L expressed on …; experiment: cell-based competition ELISA on CHO cells expressing full-length human OX40L; competitor human OX40-IgG-bio, streptavidin-HRP
Description: as §1

[9] = biological target: T1, recombinant human OX40L-flag …; experiment: competition ELISA, coated human OX40-IgG as competitor, Flag-tagged OX40L (printed 'OX40-Flag') in solution with antibody dilutions; plate coated with OX40-IgG; Flag-tagged ligand in solution with antibody

B1: mouse anti-human OX40L monoclonal antibody 8E12 (antibody, V domains shown)
VH: QVQLQQPGAELVRPGASVKLSCKASGYTFTSYWLNWVKQRPGQGLEWIVMIDPSDSETHYNQVFKDKATLTVDKSSSTAYMQLSSLTSEDSAVYYCIRGRGNFYGGSHAMEYWGQGTLLTVSS
VL: DILMTQTPLSLPVSLGDQASISCRSSQSIVHGNGNTYLEWHLQKPGQSPKLLIYRVSNRFSGVPDRFSGSGSGTDFTLKINRVEAEDLGVYYCFQGSHVPYTFGGGTKVEIKR
notes: Tested as mouse IgG purified from hybridoma medium by Protein A; also called Mab 8E12; anti-OX40L mab 8E12
koff [1]: < 5e-06 s⁻¹ | EC50 [2]: ~20 nM | binding result [3]: no binding | IC50 (read off the curve) [4]: 2.5 to 3 nM | binding result [5]: no binding (tested: 0.004-4 ug/ml) | EC50 [6]: ~1.4 nM | Kd [7]: 0.92 nM | EC50 [8]: ~11 nM | EC50 [9]: ~1.9 nM

— patent publication US20090053230A1 (Genentech, published 2009)
